Reference: patent US20230227548A1 (published 2023)
Where a chain is given by its changes, count along the chain named. Numbers in names are those of the source.

How the values were obtained:
[1] = biological target: T1, human GPRC5D (human, UniProt Q9NZD1 1-345); assay: FACS, human GPRC5D cells
T1 construct: on transfected HEK293 or RBL cells, or endogenous on MM1R, H929, OPM2, LP-1, JIM3 and patient plasma cells; also called G-protein coupled receptor family C group 5 member D; hGPRC5D

[2] = biological target: T1, human GPRC5D; assay: cell-based or functional assay
[3] = biological target: T1, human GPRC5D; assay: cell-based or functional assay; remark: listed apart in the source
[4] = biological target: T1, human GPRC5D; assay: cell-based or functional assay; remark: listed apart in the source
[5] = biological target: T1, human GPRC5D; assay: FACS, MM patient MM303BM bone marrow MNCs (plasma cells)
[6] = biological target: T1, human GPRC5D; assay: FACS, MM patient MM305BM bone marrow MNCs (plasma cells)
[7] = biological target: T2, cyno GPRC5D (cyno, UniProt Q9NZD1 1-343 (human entry)); assay: cell-based or functional assay
T2 chain: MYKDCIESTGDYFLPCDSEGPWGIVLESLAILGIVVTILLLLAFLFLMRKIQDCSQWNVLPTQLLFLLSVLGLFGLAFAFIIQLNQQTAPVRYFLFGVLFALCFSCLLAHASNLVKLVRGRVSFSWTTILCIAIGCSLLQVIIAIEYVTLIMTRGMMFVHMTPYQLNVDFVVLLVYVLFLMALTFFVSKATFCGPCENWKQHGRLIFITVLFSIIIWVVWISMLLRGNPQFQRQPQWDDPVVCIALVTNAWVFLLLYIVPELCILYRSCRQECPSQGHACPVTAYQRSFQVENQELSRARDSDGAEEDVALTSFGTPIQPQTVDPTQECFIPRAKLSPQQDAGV

[8] = biological target: T2, cyno GPRC5D; assay: cell-based or functional assay
[9] = biological target: T2, cyno GPRC5D; assay: FACS, cyno GPRC5D cells, 1 ug/ml

T1 sequence (Q9NZD1 whole entry): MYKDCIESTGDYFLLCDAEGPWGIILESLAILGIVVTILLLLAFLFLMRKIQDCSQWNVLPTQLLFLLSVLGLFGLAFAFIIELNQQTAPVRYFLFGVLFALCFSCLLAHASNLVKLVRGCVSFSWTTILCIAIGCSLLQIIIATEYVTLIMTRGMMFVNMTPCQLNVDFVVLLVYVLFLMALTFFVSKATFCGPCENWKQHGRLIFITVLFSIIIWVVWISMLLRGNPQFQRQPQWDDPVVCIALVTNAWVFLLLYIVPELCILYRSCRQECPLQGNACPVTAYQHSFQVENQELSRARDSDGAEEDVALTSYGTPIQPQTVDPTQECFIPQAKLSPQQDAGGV

B1: GC5B540 (antibody, V domains shown)
VH: QVTLKESGPVLVKPTETLTLTCTVSGFSLTSYNVHWIRQPPGKALEWLAVIWAGGSTNYNSALMSRLTISKDTSKSQVVLTMTNMRAEDTATYYCARDGIRLRFAYWGQGTLVTVSS
VL: EIVMTQSPATLSVSPGERATLSCKASQNVATHVGWYQQKPGQAPRLLIYSASYRYSGIPARFSGSGSGTEFTLTISSLQSEDFAVYYCQQYNRYPYTFGQGTKLEIK
notes: HFA of GC5B396: GC5H240 + GC5L58; IgG4
Q: Does B1 bind [1]?
A: Result: binds

B2: GCDB32 (bispecific antibody, IgG4, V domains shown)
VH 1: EVQLVESGGGLVQPGGSLRLSCAASGFTFNTYAMNWVRQAPGKGLEWVARIRSKYNNYATYYAASVKGRFTISRDDSKNSLYLQMNSLKTEDTAVYYCARHGNFGNSYVSWFAYWGQGTLVTVSS
VL 1: QTVVTQEPSLTVSPGGTVTLTCRSSTGAVTTSNYANWVQQKPGQAPRGLIGGTNKRAPGTPARFSGSLLGGKAALTLSGVQPEDEAEYYCALWYSNLWVFGGGTKLTVL
VH 2: not shown
VL 2: not shown
notes: IgG4-PAA by Fab arm exchange; first VH/VL = CD3B219 arm (IgG4 S228P, L234A, L235A, F405L, R409K); also called GC5B81 x CD3B219
Q: B2 was tested. Which “T-cell mediated cytotoxicity EC50, H929 (n = 5)” value [2] did it give?
A: Its value is 0.39 nM.

Q: And the “T-cell mediated cytotoxicity EC50, MM1R (n = 3)” value [2]?
A: The value was 0.12 nM.

Q: What about the “T-cell redirection cytotoxicity EC50, human GPRC5D HEK cells” value [3] of the same binder?
A: The value was 0.04 nM.

Q: And the “T-cell mediated cytotoxicity EC50, H929 cells” value [4]?
A: Its value is 0.45 nM.

Q: And the “T-cell mediated cytotoxicity EC50, LP-1” value [4]?
A: The value was 1.02 nM.

Q: What about the “T-cell mediated cytotoxicity EC50, MM1R” value [4] of the same binder?
A: Its value is 0.04 nM.

Q: And the “T-cell mediated cytotoxicity EC50, OPM2” value [4]?
A: The value was 0.98 nM.

Q: What about the EC50 [5] of the same binder?
A: Its EC50 is 16.1 nM.

Q: And the EC50 [6]?
A: Its EC50 is 70.4 nM.

B3: GCDB35 (bispecific antibody, V domains shown)
VH 1: B2 VH 1
VL 1: B2 VL 1
VH 2: EVQLVQSGAEVKKPGESLKISCKGSGYSFTSYWIGWVRQMPGKGLEWMGIIYPGDSDTRYSPSFQGQVTISADKSISTAYLQWSSLKASDTAMYYCARVYSFGGRHKALFDYWGQGTLVTVSS
VL 2: EIVLTQSPATLSLSPGERATLSCRASQSVSSYLAWYQQKPGQAPRLLIYDASNRATGIPARFSGSGSGTDFTLTISSLEPEDFAVYYCQQRSNWPLTFGQGTKVEIK
Q: For B3, which “T-cell mediated cytotoxicity EC50, H929 (n = 5)” value [2] is on record?
A: Its value is 1.39 nM.

Q: What about the “T-cell mediated cytotoxicity EC50, MM1R (n = 3)” value [2] of the same binder?
A: Its value is 0.74 nM.

B4: GCDB43 (bispecific antibody, V domains shown)
VH 1: B2 VH 1
VL 1: B2 VL 1
VH 2: not shown
VL 2: not shown
Q: Which “T-cell mediated cytotoxicity EC50, H929 (n = 5)” value [2] does the source give for B4 here?
A: The value was 0.36 nM.

Q: What about the “T-cell mediated cytotoxicity EC50, MM1R (n = 3)” value [2] of the same binder?
A: The value was 0.21 nM.

B5: GCDB45 (bispecific antibody, V domains shown)
VH 1: B2 VH 1
VL 1: B2 VL 1
VH 2: EVQLVQSGAEVKKPGESLKISCKGSGYSFTSYWIGWVRQMPGKGLEWMGIIYPGDSDTRYSPSFQGQVTISADKSISTAYLQWSSLKASDTAMYYCARIGFYGRSFRIFDYWGQGTLVTVSS
VL 2: B3 VL 2
Q: For B5, which “T-cell mediated cytotoxicity EC50, H929 (n = 5)” value [2] is on record?
A: Its value is 2.25 nM.

Q: What about the “T-cell mediated cytotoxicity EC50, MM1R (n = 3)” value [2] of the same binder?
A: Its value is 0.91 nM.

Q: And the “T cell mediated target cell killing, Cyno GPRC5D EC50” value [7]?
A: The value was 2.82 nM.

B6: GCDB44 (bispecific antibody, V domains shown)
VH 1: B2 VH 1
VL 1: B2 VL 1
VH 2: not shown
VL 2: B3 VL 2
Q: Which results are given for B6?
A: T-cell mediated cytotoxicity EC50, H929 (n = 5) [2]: 10.3 nM; T-cell mediated cytotoxicity EC50, MM1R (n = 3) [2]: 4.41 nM

B7: GCDB72 (bispecific antibody, IgG4, V domains shown)
VH 1: B2 VH 1
VL 1: B2 VL 1
VH 2: QVQLVQSGAEVKKPGASVKVSCKASGYSFTGYTMNWVRQAPGQGLEWMGLINPYNSDTNYAQKLQGRVTMTTDTSTSTAYMELRSLRSDDTAVYYCARVALRVALDYWGQGTLVTVSS
VL 2: DIQMTQSPSSLSASVGDRVTITCKASQNVATHVGWYQQKPGKAPKRLIYSASYRYSGVPSRFSGSGSGTEFTLTISNLQPEDFATYYCQQYNRYPYTFGQGTKLEIK
Q: Which “T-cell redirection cytotoxicity EC50, cyno GPRC5D HEK cells” value [8] does the source give for B7 here?
A: The value was 3.41 nM.

B8: GCDB53 (bispecific antibody, IgG4, V domains shown)
VH 1: B2 VH 1
VL 1: B2 VL 1
VH 2: not shown
VL 2: not shown
notes: IgG4-PAA; first VH/VL = CD3B219 arm (adds F405L, R409K), second = GC5B465 arm; also called GC5B465 x CD3B219
Q: How did the “T-cell redirection cytotoxicity EC50, human GPRC5D HEK cells” value [3] turn out when B8 was run?
A: Its value is 0.08 nM.

Q: And the “T-cell redirection cytotoxicity EC50, cyno GPRC5D HEK cells” value [8]?
A: Its value is 0.36 nM.

Q: What about the “T-cell mediated cytotoxicity EC50, H929 cells” value [4] of the same binder?
A: Its value is 0.69 nM.

Q: And the “T-cell mediated cytotoxicity EC50, LP-1” value [4]?
A: Its value is 1.58 nM.

Q: And the “T-cell mediated cytotoxicity EC50, MM1R” value [4]?
A: The value was 0.28 nM.

Q: What about the “T-cell mediated cytotoxicity EC50, OPM2” value [4] of the same binder?
A: The value was 2.83 nM.

Q: What about the EC50 [5] of the same binder?
A: The EC50 was 3.98 nM.

Q: And the EC50 [6]?
A: The EC50 was 10.2 nM.

B9: GCDB61 (bispecific antibody, IgG4, V domains shown)
VH 1: B2 VH 1
VL 1: B2 VL 1
VH 2: B3 VH 2 with W33F, D55K
VL 2: B3 VL 2
notes: IgG4-PAA; first VH/VL = CD3B219 arm (adds F405L, R409K), second = GC5B483 arm; also called GC5B483 x CD3B219
Q: Which “T-cell redirection cytotoxicity EC50, human GPRC5D HEK cells” value [3] does the source give for B9 here?
A: The value was 0.03 nM.

Q: What about the “T-cell redirection cytotoxicity EC50, cyno GPRC5D HEK cells” value [8] of the same binder?
A: The value was 1.22 nM.

Q: And the “T-cell mediated cytotoxicity EC50, H929 cells” value [4]?
A: The value was 0.39 nM.

Q: And the “T-cell mediated cytotoxicity EC50, LP-1” value [4]?
A: Its value is 1.67 nM.

Q: What about the “T-cell mediated cytotoxicity EC50, MM1R” value [4] of the same binder?
A: The value was 0.06 nM.

Q: And the “T-cell mediated cytotoxicity EC50, OPM2” value [4]?
A: The value was 1.46 nM.

Q: What about the EC50 [5] of the same binder?
A: The EC50 was 5.53 nM.

Q: What about the EC50 [6] of the same binder?
A: Its EC50 is 6.93 nM.

B10: GC5B252 (antibody, V domains shown)
VH: QVQLVQSGAEVKKPGSSVKVSCKASGGTFSSYGISWVRQAPGQGLEWMGGIIPIFGNINYAQKFQGRVTITADESTSTAYMELSSLRSEDTAVYYCARVSRRFKRFAYYFDYWGQGTLVTVSS
VL: B3 VL 2
Q: For B10, which MFI [9] is on record?
A: Its MFI is 63300.

B11: GC5B163 (antibody, V domains shown)
VH: B3 VH 2
VL: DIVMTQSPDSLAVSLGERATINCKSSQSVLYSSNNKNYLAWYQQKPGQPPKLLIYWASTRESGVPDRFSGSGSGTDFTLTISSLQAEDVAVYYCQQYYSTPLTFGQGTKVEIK
Q: For B11, which MFI [9] is on record?
A: The MFI was 22000.
